Measurements reported in publication PMC4941208 (Journal of the American Chemical Society, 2015).
No end group written: not given here. *: point of attachment. GlcN = OC[C@H]1OC(O)[C@H](N*)[C@@H](O)[C@@H]1O; Acetyl(2-naphthyl) = O=C(Cc1ccc2ccccc2c1)*

T1: P-1 (Nap-FF-LGFNI, heptapeptide derivative)
T1 sequence (peptide, 2-(naphthalen-2-yl)acetic group (Nap) on the N-terminus): FFLGFNI


Columns and labels:
hydrogel of P-1 = test: Gel-sol transition and rheology; type: physicochemical; details: 7 days
[1] = TEM of hydrogel and solutions; type: physicochemical; details: solution at 16.6 mM
proteinase K = proteinase K (Parengyodontium album, UniProt P06873); type: in vitro ADME; details: 37 °C, 24 h
hydrogelation + TEM = biological target: the molecule itself; test: hydrogelation + TEM
[2] = biological target: T1, P-1 (Nap-FF-LGFNI, heptapeptide derivative); test: ITC

proteinase K, sequence (P06873 106-384): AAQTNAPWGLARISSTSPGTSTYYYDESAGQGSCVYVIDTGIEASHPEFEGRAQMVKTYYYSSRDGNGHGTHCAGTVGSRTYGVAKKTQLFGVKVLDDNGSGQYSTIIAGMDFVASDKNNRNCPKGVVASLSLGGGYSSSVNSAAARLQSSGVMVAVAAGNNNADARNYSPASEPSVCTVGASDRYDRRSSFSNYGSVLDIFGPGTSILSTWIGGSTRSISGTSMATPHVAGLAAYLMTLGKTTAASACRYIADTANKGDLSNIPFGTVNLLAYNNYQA

Molecule	Kd [2]	dH [2]	stoichiometry N [2]	also measured
GP-2: Glycoconjugate of nucleobase, peptide, saccharide: thymine at N-terminal and glucosamine at C-terminal of TTPV (thymine-TTPV-GlcN)	–	–	–	G' times smaller than that of hydrogel of P-1 (hydrogel of P-1; 4 equiv of compound): about 300 times; Max G' of P-1 after addition of 4 equiv of compound (hydrogel of P-1; hydrogel of P-1 622 μM, pH 6.4, 300 μL + 50 μL 15 mM compound (4:1)): 0.06 Pa; nanostructures in TEM images of the solution [1]: hardly any ordered nanostructures; Hydrogelator P-1 remaining in mixture with 1 equiv of compound (proteinase K; hydrogel of P-1 + compound 1:1, proteinase K 3.2 U/mL): 45.0 ± 0.4%; Hydrogelator P-1 remaining in mixture with 4 equiv of compound (proteinase K; hydrogel of P-1 + compound 4:1, proteinase K 3.2 U/mL): 24.2 ± 2.0%
{Acetyl(2-naphthyl)}-FFLGFNI [P-1 (Nap-FF-LGFNI, heptapeptide derivative)]	–	–	–	binding result (hydrogelation + TEM): binds
thymine-TTPV-GlcN [GP-2 (thymine-TTPV-glucosamine, conjugate of nucleobase, peptide and saccharide)]	262 µM	-4.11 kcal/mol	1.04	–
thymine-TTPV [P-3 (thymine-TTPV, non-glycosylated control of GP-2)]	235 µM	-3.13 kcal/mol	1.38	–
